Laboratory results from the nanobody polyreactivity screen of Harvey et al. (2022).

Test: yeast display, Sf9 membrane polyspecificity reagent, FACS + sequencing; frameworks hold sequencing errors
Summary of the method: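 Nanobodies from a synthetic yeast display library (Saccharomyces cerevisiae BJ5465), induced 36–48 hours with galactose, were stained 1 hour at 4 °C with 10% biotinylated, detergent-solubilized Sf9 membrane reagent, enriched on streptavidin microbeads, then FACS-sorted. Anti-HA (expression) and streptavidin (reagent binding) fluorescence set low and high (top ~1%) gates. Polyreactivity labels come from the gate of origin. Genes were colony-PCR amplified, MiSeq 2 × 250 sequenced and filtered by CDR length.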

Sequence	polyreactivity (PSR sort gate)
QVQLVESRGGLVQAGGSLRLSCAASGFTFPFYAMGSYRQAPGKERELVAAISISGGSTHYADSVKGRFTISRDNAKNTVYLQMNSLKPEDTAVYYCAAEYGVVIYIDGWYPTLHEYYYSGQGTQVTVSS	high polyreactivity
QVQLVESGGGLVQAGGSLRLSCAASGFTFNSYAMGWYRQAPGKERELVAAITSSGGRTYYADSVKGRFTISRDNAKNTVYLQMNSLKPEDTAVYYCAARRGGKVATIYDYWGQGTQVTVSS	low polyreactivity
QVQLVESGGGFVQAGGSLRLSCASSGRTFHYYAMGWYRQAPGKERELVAAISFDGGTTYYADSVKGRFTISRDNAKNTVYLHMNSPKPEDTAVYYCNALRYRDRVGYNYWGQGTQVTVSS	high polyreactivity
QVQLVESGGGLVQAGGSLRLSCAASGFIFQDNAMGWYRQAPGKERELVAAIRSTGSTNYADSVKGRFTISRDNAKNTVYLQMNSLKPEDTAVYYCNAGKYQSDTPSLVPTEYPAFYYWGQGTQVTVSS	low polyreactivity
QVQLVESGGGLVQAGGSLRLSCAASGSIFTRYAMGWYRQAPGKERELVAAIRTSGGSTYYADSVKGRFTISRDNAKNTVYLQMNSLKPEDTAVYYCARRYYKSNFYYWGQGTQVTVSS	high polyreactivity
QVQLVESGGGLVQAGGSLRLSCAASGSTLGYYTMGWYRQAPGKERELVAAIDWSGGSTYYADSVKGRFTISRDNAKNTVYLQMNSLKPEDTAVYYCAVDYTYSYVDYWSEYDYWGQGTQVTVSS	low polyreactivity
QVQLVESGGGLVQAGGSLRLSCAASGFIFSSYAKGWYRQAPGKERELVAVITRSGRRTYYADSVKGRFTISRDNAKNTFYLQMNSLKPEDTAVYYCNATLPNEVAPNDYWGQGTQVTVSS	high polyreactivity
QVQLVESGGGLVQAGGSLRLSCAASGRIFPLYAMGWYRQAPGKERELVAAITSSGGSTYYPDSVKGRFTISRDNAKNTVYLQMNSLKPEDTAVYYCAADYSVYWLDYGYWGQGTQVTVSS	low polyreactivity
QVQLVESRGGLVQAGGSLRLSCAASGRNFRFNAMGWYRQEPGKERELVAAISASGGITYYADSVKGRFTISRDNAKNTVYLQMNSLKPEDSAVYYCAADLYATWSYFFTWLDNWGQGTQVTVSS	high polyreactivity
QVHLVESGGGLVQAGGSLRLSCAAYGSIFRVYAMGWYRPAPGKERELVAAIDSGGSTYYADSVKGRFTISRDNAKNTVYLQMNSLKPEDTAVYYCNADRRPGGDYWGQGTQVTVSS	low polyreactivity
QVQLVESGGGLVQAGGSLRLSCAASGSTFRRYAMGWYRQAPVKERELVAAITRGGITYYADSVKGRFTISRDNAKNTVYLQMNSLKPEDTAVYYCAATTFGPYALYPRYYYWGQGTQVTVSS	high polyreactivity
QLQLVESGGGLVQAGGSLRLSCAASGRTFRLNGMGWYRQAPGKERELVAAITWSGGRTYYADSVKGRFTISRDNAKNTVYLQMNSLNPEDTAVYYCAAGKSSYGKPKYYYWGQGTQVTVSS	high polyreactivity
QGQLVESGGGLVQAGGSLRLSCAASGSIYPLNVMGWYRQSPGKERELVATISKSGGSTYYADSVKGRITISRDNAKNTVYLQMNSLKPEDTGVYNCTVGRYVVGGTSVGYWGQGTQVSVSS	low polyreactivity
QVQLVESGGGLVQAGGSLRLSCAPSGRIFSYNTMGWYRQAPGKERELVAAISRGGSTYYADSVKGRFTISRDNAKNTVYLQMNSLKPEDTAVYYCNALLPPGSRKYNYWGQGTQVTVSS	high polyreactivity
QVQLVESGGGLVQAGGSLRLSCAASGSIFYGYAMGWYRPAPGKERELVAAISSGGRTYYADSVKGRFTISRDNAKNTVYLQMNSLKPEDTAVYHCAASYWKPHRESGYDYWGQGTQVTVSS	high polyreactivity
QVQLVESGGGLVQAGGRLRISCAASGAIFGEYPMGWYSQAPGKERELVADITTGGNTNYADSVKGRFTITRDNAKNTVYVHMNSLKPEDTAVYYCIAYGNTYGYWWFGYWGQGTQVNVSS	low polyreactivity
QVQLVESGGGLVQAGGSLRLSCAASGSIFYYNAMGWYRQAPGKESELVAASSRRVGNTYYADSVKGRFTISRDNAKNTVYLQMNSLKPEDTAVYYCNTDRSSRPSYDYWGQGTQVTVSS	high polyreactivity
QVQLVDSGGGLVQAGGSLRLSCAASGSILGGNAMGWYRQAPGKERELVAAITFSGGGTYYADSVKGRFTISRDHAKNTVYLQMNSLKPEDTAVYYCAADKDGYTYEFDYWGQGTQVTVSS	low polyreactivity
QVQLVESGGGLVQAGGSLRLSSAASGFILEPNAMGWYRQAPGKERELVAAITTSGGTYYADSVKGRFTISRDNAKNTVYLQMNSLKPEDTAVYYCNAVSTDSWAYHGDYWGQGTQVTVSS	low polyreactivity
QVQLVESGGGLVQAGGSLRLSCAASGRIITLYAMGWYRQAPGKERELVAGISRSGGSTYYADSVKGRFTISRDNAKNTVYLQMNSLKPEDTAVSYCNAVPIYYAWRRNKPFDYWGQGTQVTVSS	low polyreactivity
QVQLVESGGGLVQAGGSLRLSCAASGRIFRTYAMGWYRQAPGKERELVAAISGRGGNTYYADSVKGRFTSSRDNAKNTVYLQMNSLKPEETAVYYCAASKPARDTQQRWVYAGYDYWGQGTQVTVSS	high polyreactivity
QVQLVESGGGLVQAGGSIRLSCAASGRTFGYYAMGWYRQAPGKERELVAAITRTGGSTHYADSVKGRFTISRDNAKNTVYLQMNSLKPEDTAVYYCALDYRYTIPYDYWGQGTQVTVSS	low polyreactivity

Sequence	polyreactivity (PSR sort gate)
QVQLVESGVGIVQAGGSLRLSCAASGRISYFNAMGWYRQAPGKERELVAAIRRSGGITYYADSVKGRFTISRDNAKNTVYLQMNSLKPEDTAVYYFATERYSWAERDFGYWGQGTLVTVSS	low polyreactivity
QVQIVESGGGLVQAGGSLRLSCAASGFTFGVYAMGWYRQAPGKERELVAAISVSGGRTYYADSVKGRFTISRDNAKNTVYLQMNSLKPEDTAVYYCAADLGLKTSSRRTSMYYWGQGTQVTVSS	high polyreactivity
QVQLVESVGGLGQAGGSLRLSCAASGYIFRPDAMGWYRQEPGKERELVAVISSGGSTYYADSVKGRFTISRDNAKNTVYLQMNSLKPEDTAVYYCNRTLPSIGGTTYEYWRQGTQVTVSS	low polyreactivity
QVQLVESGGGLDQAGGSLRLSCAASGNTSPVNAMGWYRQAPGKERELVAAITQSGGSTYYADSVKGRFTISRDNAKNTVYLQMNSLKPEDTAVYYCAAPDAGWRDGGDYWGQGTQVTVSS	low polyreactivity
QVQLVESGGGLVQAGGSLSLSCAASGFIFYRYAMGWYRQAPGKERELVAGISSRGGSTYYADSVKGRFTISRDNAKNTVYLQMNSLKPEDTAVYYCAKRPLTSNASQGDYWGQGTQVTVSS	high polyreactivity
QVKIVESGGGLVQAGGSLRLSCAASGSTYYYYSMGWYRQAPGKERELVAAITGSGTSTYYADSVKGRFTISRDNAKNTVYLQMNSLKPEYTAVYYCAAEYPWYYYIDVSYTDYGYWGQGTQVTVSS	high polyreactivity
QVQLVESGGGLVQAGGSLRLSCAASGSIFSGNAMGWYRQAPGKERELVAAITSSGGSTYYADSVKGRFTISRDNAKNTVYLQMNSLKPEDTAVYYCAKDYYSKHFPIYDYWGQGTQVTVSS	low polyreactivity
QVQLVESGGGLVQAGGSLRLSCAASGFTFKRYAMGWYRQAPGKERELVAAISWSGGSTYYADSVKGRFTISRDNAKNTVYLQMNSLKPEDTAVYYCAADGGSTEEYYYWGQGTQVTVST	high polyreactivity
QVQLVETGGGLVQAGGSLRLSCAASRSIFLYYAMGWYRQAPGKERELVAAISYSGSGTYADSVKGRFTISRDNAKNTVYLEMNSLKPEDTAVYYCNVDYGSYSYDYWGQGTQVTVSS	low polyreactivity
QVQLVESGGGLVQAGGSLRLSCAATGFTFVYYAMGWYRPAPGKERELVAAISSSGTRTYYADSVKGRFTISRDNAKNTVYLQMNSLKPEDTAVYFCAARNTYRTKVDYWGQGTQVTVSS	high polyreactivity
QVQLVESGGGLVQAGGRLRLSCDASGITFISNTMGWSRQAPGKERELVAAISWTGGSTYYADSVKGRFTISRDNAKNTVYLQMNSQKPEDTAVYYCNAVRYYVYSTQYDYWGEGTQVTVSS	high polyreactivity
QVQLVESGGGLVQAGGSLRLSCAASGSTFTHYAMGWYRQAPGKERELVAAITSSGGSTYYADSVKGRFTISRDNAKNTDYLQMNSLKPVDTAVYYCAARGSYRNRYRHDYWGQGTQVTVSS	high polyreactivity
QVQLVESGGGLVQAGGSLRLSCAPSGSTFPWNAMGWYRQAPGKERELVAAIRTGGGRTYYADSVKGRFTISRDNAKNTVYLQMNSLKPEDTAVYYCNAYFTYWSQLYYWGQGTQVTVSS	high polyreactivity
QVQLVESGGGLVQAGGSLRLSCAASGRILGRNAMGWYRQAPGKERELVAAISSGGNTYYADSVKGRFTISRDNAKNTVYLQMNSLKPEDTAVYYCNTGTYKDWGQGTQVTVSS	low polyreactivity
QVQLVESGGGLVQAGGSLRLSCAASGRTFNGYAMGWYRQAPGKERELVAAISSSGGSTYYADSVKGRFTISRDNAKNTVYLQMNSLKPEDTAVYYCAARRANGFNYWGQGTQVTVSS	high polyreactivity
QVQLQESGGGLVQAGGSLRLSCAASGTISPLPAMGWYRQAPGKEREFVAGIDTGAITNYADSVKGRFTISRDNAKNTVYLQMNSLKPEDTAVYYCAVFQAAYDYYERYYTYWGQGTQVTVSS	low polyreactivity
QVQLVESGGGLVQAGGSLRLSCAASGRIFNKNAMGWYRQAPGKERELVAAISWSGTSTYYADSVKGRFTISRDTAKNTVYLQMHSLKPEDTAVYYCAAADFYYTGADDYWGQGTQVTVSS	high polyreactivity
QVQLVESGGGLVQAGGSLRLSCAASGITFTGYAMGWSRQAPGKERELVAAISKRGARTYYADSVKGRFTNSRDNAKNTVYIQMNSLKPEDTAVYYCAADSTAQDIAGLYYWGQGTQVTVSS	high polyreactivity
QVQLVESGGCLVQAGGSLRLRCAASGRTLRCYAMGWYRQAPGKEREFVAAISRGTVGTYYADSVKGRFTISRDNAKNTVYLQMNSLKPEDTAVYYCAADRFAYFTNLRLGYYSWGQGTQVTVSS	low polyreactivity
QVQLVESGGGLVQAGGSLRLSCAASGRTFGYNAMGWYSQAPGKERELVAAISRSGGRTYYADSVKGRFTISRDNAKNTVYLQMNSLKPEDTAVYYCAAESYHRGYDYWGQGTQVTLSS	high polyreactivity
QVQLVESGGGLVQAGGSLRLSCAASGRIFAIYAMGWYRQAPGKERELVAGITYSAGSTYYADSVKGRFTISRDNAKNTVYLQMNSLKPEDTAVYYCAALEYNSHRYGYDYWGQGTQVTVSS	low polyreactivity
